Test results reported in US20210324080A1 (JIANGSU HUAIYU PHARMACEUTICAL, published 2021).

T1: CTLA-4-hFc (immunogen A; hFc-labeled CTLA-4 extracellular domain protein) (human, UniProt P16410 36-161)
T1 construct: range 36-161; Made in HEK293 cells, purified on protein A; also called CLTA-4-hFc; CTLA-4 protein; not shown: human IgG Fc fragment (hFc) of the pCpC vector
T1 sequence (looked up): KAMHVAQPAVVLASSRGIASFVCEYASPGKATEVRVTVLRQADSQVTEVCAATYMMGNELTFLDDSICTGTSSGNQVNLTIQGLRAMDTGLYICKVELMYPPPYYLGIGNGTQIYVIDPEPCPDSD

T2: CTLA-4 on human T lymphocytes (PBMC, CD3+ T cells) (human, UniProt P16410 36-223)
T2 sequence (looked up): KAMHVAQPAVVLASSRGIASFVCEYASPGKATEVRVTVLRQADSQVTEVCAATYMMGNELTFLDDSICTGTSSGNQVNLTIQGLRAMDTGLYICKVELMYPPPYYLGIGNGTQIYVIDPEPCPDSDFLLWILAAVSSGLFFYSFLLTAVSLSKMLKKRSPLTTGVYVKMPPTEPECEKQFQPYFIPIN

T3: human CTLA-4 (Y201V), full length, on transfected cells (human, UniProt P16410 36-223)
T3 construct: whole, on cells; also called hCTLA-4; HEK293-hCTLA-4 (Y201V)
T3 sequence (looked up): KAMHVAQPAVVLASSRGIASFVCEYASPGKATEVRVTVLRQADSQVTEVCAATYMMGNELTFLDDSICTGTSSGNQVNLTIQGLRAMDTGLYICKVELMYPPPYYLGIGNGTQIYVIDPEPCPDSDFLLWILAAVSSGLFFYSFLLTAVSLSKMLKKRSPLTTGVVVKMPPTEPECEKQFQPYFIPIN

B1: 92C8B6 (chimeric antibody purified from hybridoma supernatant) (antibody, V domains shown)
VH: QVQLVESGGGVVQPGRSLRLSCAASGFTFSNFGMHWVRQAPGKGLEWVAVIWYDGSNKYYADSVKGRFTISRDNSKNTLFLQMNGLRAEDTAVYYCAKGGILMAGTLDYWGQGTLVTVSS
VL: DIQMTQSPSSLSASVGDRVTITCRASQSVSTYLNWYQQKPGKAPKLLIYAASSFQSGVPSRFSGSGSGTDFTLTISSLQPEDFATYFCQQSYSTPFTFGPGTKVDIK
notes: also called mAb42; mAb042
B2: 97B8E1 (chimeric antibody purified from hybridoma supernatant) (antibody, V domains shown)
VH: QVQLVESGGGVVQPGRSLRLSCAASGFTFSSYVMHWVRQAPGKGLEWVAVIWSDGRNKYYTDSVKGRFTISRDNSKNTLYLQMSSLRAEDTAVYYCARSGIALAGNAFDIWGQGTMVTVSS
VL: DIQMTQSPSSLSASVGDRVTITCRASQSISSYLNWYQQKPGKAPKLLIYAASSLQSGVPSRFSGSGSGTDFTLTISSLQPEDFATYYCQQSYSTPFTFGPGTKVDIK
notes: also called mAb50; mAb050
B3: 97A8D1 (chimeric antibody purified from hybridoma supernatant) (antibody, V domains shown)
VH: QVQLVESGGGVVQPGRSLRLSCVASGFTFNNYGMNWVRQAPGKGLEWVAVIWYGGRNKFYADSVKGRFTISRDNSKNTLYLEMNSLRAEDTAVYYCARADWGGWFDPWGQGTLVTVSS
VL: EIVLTQSPGTLSLSPGERATLSCRASQSVSSTYLAWYQQKPGQAPRLLIHGAFSRATGIPDRFSGSGSGPDFTLTISRLEPEDFAVYYCQQYGTSPFTFGPGTKVDIK
notes: also called mAb49; mAb049

Columns and labels:
[1] = biological target: T4, monkey CTLA-4, full length, on transfected HEK293 cells (monkey); test: FACS, 293F-cCTLA-4 cells
T4 construct: whole, on cells; also called cCTLA-4; HEK293-cCTLA-4
Text: The pIRES plasmid with the monkey-derived CTLA-4 full-length gene was transfected into the HEK293 cell line to construct a HEK293 stable cell line containing monkey CTLA-4 (herein referred to as HEK293-cCTLA-4 stable cell line), wherein the database accession number of the monkey CTLA-4 nucleotide sequence is XM_005574014.1. The HEK293-hCTLA-4 stable cell line and HEK293-cCTLA-4 stable cell line were expanded in a T-75 cell culture flask to a 90% confluence. The medium was aspirated, and the cells were washed with HBSS buffer (Hanks Balanced Salt Solution, purchased from Invitrogen) twice, then treated with an enzyme-free cell dissociation fluid (Versene solution, purchased from Life technology) and the cells were collected. The cells were washed with HBSS buffer twice. After counted, the cells were diluted with HBSS buffer to 2×10⁶ cells per ml, added with 1% goat serum blocking solution, wherein the percentage was the mass percantage. Cells were incubated on ice for 30 minutes, then washed twice with HBSS buffer by centrifugation. The collected cells were suspended in the FACS buffer (HBSS containing 1% BSA, wherein the percentage was the mass percantage) to 2×10⁶ cells/ml, added as 100 microliters per well to a 96-well FACS reaction plate, added with 100 microliters per well of the purified CTLA-4 antibody sample to be tested, incubated on ice for 2 hours. The plate was washed twice with the FACS buffer by centrifugation, added with 100 microliters of fluorescent (Alexa 488)-labeled secondary antibodies (purchased from Invitrogen) per well, and incubated on ice for 1 hour. The plate was washed 3 times with FACS buffer by centrifugation, added with 100 μl fixative solution [4% (v/v) Paraformaldehyde] per well to suspend the cells. 10 minutes later, it was washed 2 times with FACS buffer by centrifugation. The cells were suspended with 100 microliters of FACS buffer, FACS (FACS Calibur, purchased from BD) was used for detection and the results were analyzed.

[2] = biological target: T1, CTLA-4-hFc (immunogen A; hFc-labeled …); test: ELISA, coated CTLA-4-hFc, competitor biotin-B7.1-hFc
Procedure: (§1) CTLA-4 extracellular domain protein (CTLA-4-hFc) was diluted with PBS to a final concentration of 1.0 μg/mL, and then added to a 96-well ELISA plate as 100 μl per well. The plate was covered with a plastic film and incubated overnight at 4° C. The plate was washed twice with plate washing solution [PBS containing 0.01% (v/v) Tween 20] on the next day, and added with blocking solution [PBS containing 0.01% (v/v) Tween 20 and 1% (w/w) BSA] and blocked at room temperature for 2 hours. […] After 2 hours, the plate was washed 3 times with a plate washing solution [PBS containing 0.01% (v/v) Tween 20]. HRP (horseradish peroxidase) labeled avidin diluent (purchased from Sigma) was added 100 microliters per well, and after the plate was incubated for 2 hours at 37° C., it was washed with plate washing solution [PBS containing 0.01% (v/v) Tween 20] for 3 times. […] TMB substrate was added to each well. After incubated at room temperature for 30 minutes, the plate was added with […] stop solution (1.0N HCl) to each well. An ELISA plate reader (SpectraMax 384plus, Molecular Device) was used to read the A450 nm value.

[3] = biological target: T1, CTLA-4-hFc (immunogen A; hFc-labeled …); test: competition ELISA: CTLA-4-hFc coated, antibody titrated, blocked ligand biotin-labeled B7.2-hFc, HRP-avidin, A450, inhibition (%)
Procedure: as §1

[4] = biological target: T1, CTLA-4-hFc (immunogen A; hFc-labeled …); test: ELISA, coated CTLA-4-hFc, competitor biotin-B7.2-hFc
Procedure: as §1

[5] = biological target: T2, CTLA-4 on human T lymphocytes (PBMC, …); test: cell-based or functional assay
[6] = biological target: T3, human CTLA-4 (Y201V), full length, on …; test: FACS, CHOK1-hCTLA-4 cells
[7] = biological target: T1, CTLA-4-hFc (immunogen A; hFc-labeled …); test: competition ELISA: CTLA-4-hFc coated, antibody titrated, blocked ligand biotin-labeled B7.1-hFc, HRP-avidin, A450, inhibition (%)
Procedure: as §1

MFI at 0.000128 nM [1]	MFI at 0.0128 nM [1]	MFI at 0.064 nM [1]	MFI at 0.32 nM [1]	MFI at 1.6 nM [1]	MFI at 8 nM [1]	MFI at 40 nM [1]	MFI at 200 nM [1]	Inhibition rate (%) at 0.00091 nM [2] [%]	Inhibition rate (%) at 0.091 nM [2] [%]	Inhibition rate (%) at 0.274 nM [2] [%]	Inhibition rate (%) at 0.823 nM [2] [%]	Inhibition rate (%) at 2.5 nM [2] [%]	Inhibition rate (%) at 7.4 nM [2] [%]	Inhibition rate (%) at 22.2 nM [2] [%]	Inhibition rate (%) at 66.7 nM [2] [%]	IC50 (read off the curve) [3] [nM]	Inhibition rate (%) at 0.00091 nM [4] [%]	Inhibition rate (%) at 0.091 nM [4] [%]	Inhibition rate (%) at 0.274 nM [4] [%]	further results	Binder
2.3	22.2	67.7	208	465	722	800	711	0	8	55	93	94	97	96	97	~0.2	0	23	60	Inhibition rate (%) at 0.823 nM [4]: 90%; Inhibition rate (%) at 2.5 nM [4]: 92%; Inhibition rate (%) at 7.4 nM [4]: 95%; Inhibition rate (%) at 22.2 nM [4]: 94%; Inhibition rate (%) at 66.7 nM [4]: 95%; IL-2 (pg/mL) at 0.016 ug/mL, SEB PBMC test [5]: 355 pg/mL; IL-2 (pg/mL) at 0.08 ug/mL, SEB PBMC test [5]: 830 pg/mL; IL-2 (pg/mL) at 2 ug/mL, SEB PBMC test [5]: 3740 pg/mL; IL-2 (pg/mL) at 4 ug/mL (so in the source), SEB PBMC test [5]: 1420 pg/mL; IL-2 (pg/mL) at 10 ug/mL, SEB PBMC test [5]: 6120 pg/mL; MFI at 0.07 nM [6]: 29; MFI at 0.67 nM [6]: 154; MFI at 6.67 nM [6]: 420; MFI at 66.67 nM [6]: 603; IC50 (read off the curve) [7]: ~0.2 nM	B1
2.3	35.7	96.8	270	504	757	810	784	0	-2	4	75	87	89	89	96	~0.6	0	-29	2	Inhibition rate (%) at 0.823 nM [4]: 62%; Inhibition rate (%) at 2.5 nM [4]: 78%; Inhibition rate (%) at 7.4 nM [4]: 89%; Inhibition rate (%) at 22.2 nM [4]: 91%; Inhibition rate (%) at 66.7 nM [4]: 93%; IL-2 (pg/mL) at 0.016 ug/mL, SEB PBMC test [5]: 446 pg/mL; IL-2 (pg/mL) at 0.08 ug/mL, SEB PBMC test [5]: 824 pg/mL; IL-2 (pg/mL) at 2 ug/mL, SEB PBMC test [5]: 4450 pg/mL; IL-2 (pg/mL) at 4 ug/mL (so in the source), SEB PBMC test [5]: 1950 pg/mL; IL-2 (pg/mL) at 10 ug/mL, SEB PBMC test [5]: 7910 pg/mL; MFI at 0.07 nM [6]: 22; MFI at 0.67 nM [6]: 125; MFI at 6.67 nM [6]: 347; MFI at 66.67 nM [6]: 606; IC50 (read off the curve) [7]: ~0.5 nM	B2
2.4	23.1	67.2	225	513	754	910	831	0	-1	4	78	93	91	91	97	~0.5	0	-21	6	Inhibition rate (%) at 0.823 nM [4]: 76%; Inhibition rate (%) at 2.5 nM [4]: 91%; Inhibition rate (%) at 7.4 nM [4]: 95%; Inhibition rate (%) at 22.2 nM [4]: 94%; Inhibition rate (%) at 66.7 nM [4]: 95%; IL-2 (pg/mL) at 0.016 ug/mL, SEB PBMC test [5]: 336 pg/mL; IL-2 (pg/mL) at 0.08 ug/mL, SEB PBMC test [5]: 742 pg/mL; IL-2 (pg/mL) at 2 ug/mL, SEB PBMC test [5]: 4950 pg/mL; IL-2 (pg/mL) at 4 ug/mL (so in the source), SEB PBMC test [5]: 1520 pg/mL; IL-2 (pg/mL) at 10 ug/mL, SEB PBMC test [5]: 7980 pg/mL; MFI at 0.07 nM [6]: 20; MFI at 0.67 nM [6]: 116; MFI at 6.67 nM [6]: 395; MFI at 66.67 nM [6]: 617; IC50 (read off the curve) [7]: ~0.5 nM	B3
